# Laboratory results from PMC4077652, “An Unstable Th Epitope of P. falciparum Fosters Central Memory T Cells and Anti-CS Antibody Responses” (PLoS ONE, 2014).
# B1: unnamed (parent)
# chain 1: QNSLSTEWSPCSVT
# chain 2: not shown
# chain 3: not shown
# Variants of: B1
# Assay: binding inhibition (competition) assay with biotin-labeled HA 306-318
# Details: peptides tested at 0 to 100 µM, read off a plot
row,Variant,IC50 [nM]
1,chain 1 W8A,1500
2,chain 1 T14A,800
3,chain 1 S5A,950
4,chain 1 N2A,2700
5,chain 1 T6A,1300
6,chain 1 V13A,500
7,chain 1 S3A,1100
8,chain 1 Q1A,1200
9,chain 1 E7A,3500
10,chain 1 P10A,7800
11,chain 1 C11A,800
12,chain 1 S12A,800
